According to paper PMC6743362:

Biological target: microtubules (MT fraction from mouse brain) (mouse (endogenous in mouse brain)) (UniProt P68369)
Assay: co-sedimentation

## recombinant human tau lacking the MT-binding domain (tau ΔMTBD) (from UniProt P10636-6 1-383) (natural protein)
  MT-bound fraction: 0.619
  MT-unbound fraction: 0.381
